# From IntAct's records for PubMed 25910212
# B1: Phytanoyl-CoA dioxygenase, peroxisomal (Homo sapiens), O14832 (parent)
# chain: MEQLRAAARLQIVLGHLGRPSAGAVVAHPTSGTISSASFHPQQFQYTLDNNVLTLEQRKFYEENGFLVIKNLVPDADIQRFRNEFEKICRKEVKPLGLTVMRDVTISKSEYAPSEKMITKVQDFQEDKELFRYCTLPEILKYVECFTGPNIMAMHTMLINKPPDSGKKTSRHPLHQDLHYFPFRPSDLIVCAWTAMEHISRNNGCLVVLPGTHKGSLKPHDYPKWEGGVNKMFHGIQDYEENKARVHLVMEKGDTVFFHPLLIHGSGQNKTQGFRKAISCHFASADCHYIDVKGTSQENIEKEVVGIAHKFFGAENSVNLKDIWMFRARLVKGERTNL
# B2: Multifunctional procollagen lysine hydroxylase and glycosyltransferase LH3 (Homo sapiens), O60568 (parent)
# chain: MTSSGPGPRFLLLLPLLLPPAASASDRPRGRDPVNPEKLLVITVATAETEGYLRFLRSAEFFNYTVRTLGLGEEWRGGDVARTVGGGQKVRWLKKEMEKYADREDMIIMFVDSYDVILAGSPTELLKKFVQSGSRLLFSAESFCWPEWGLAEQYPEVGTGKRFLNSGGFIGFATTIHQIVRQWKYKDDDDDQLFYTRLYLDPGLREKLSLNLDHKSRIFQNLNGALDEVVLKFDRNRVRIRNVAYDTLPIVVHGNGPTKLQLNYLGNYVPNGWTPEGGCGFCNQDRRTLPGGQPPPRVFLAVFVEQPTPFLPRFLQRLLLLDYPPDRVTLFLHNNEVFHEPHIADSWPQLQDHFSAVKLVGPEEALSPGEARDMAMDLCRQDPECEFYFSLDADAVLTNLQTLRILIEENRKVIAPMLSRHGKLWSNFWGALSPDEYYARSEDYVELVQRKRVGVWNVPYISQAYVIRGDTLRMELPQRDVFSGSDTDPDMAFCKSFRDKGIFLHLSNQHEFGRLLATSRYDTEHLHPDLWQIFDNPVDWKEQYIHENYSRALEGEGIVEQPCPDVYWFPLLSEQMCDELVAEMEHYGQWSGGRHEDSRLAGGYENVPTVDIHMKQVGYEDQWLQLLRTYVGPMTESLFPGYHTKARAVMNFVVRYRPDEQPSLRPHHDSSTFTLNVALNHKGLDYEGGGCRFLRYDCVISSPRKGWALLHPGRLTHYHEGLPTTWGTRYIMVSFVDP
# partner: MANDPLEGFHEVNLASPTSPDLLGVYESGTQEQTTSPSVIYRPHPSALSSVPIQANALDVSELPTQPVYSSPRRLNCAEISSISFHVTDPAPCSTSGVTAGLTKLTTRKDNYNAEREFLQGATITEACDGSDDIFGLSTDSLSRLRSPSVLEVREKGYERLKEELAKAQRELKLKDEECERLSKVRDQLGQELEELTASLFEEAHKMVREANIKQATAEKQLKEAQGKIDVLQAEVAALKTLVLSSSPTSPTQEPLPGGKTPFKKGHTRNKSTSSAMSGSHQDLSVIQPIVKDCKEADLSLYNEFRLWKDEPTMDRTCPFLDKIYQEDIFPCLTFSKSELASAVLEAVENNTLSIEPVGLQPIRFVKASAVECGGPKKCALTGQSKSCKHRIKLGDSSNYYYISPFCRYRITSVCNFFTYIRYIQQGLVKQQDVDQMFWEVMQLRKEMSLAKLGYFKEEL
# B3: Tribbles homolog 3 (Homo sapiens), Q96RU7 (parent)
# chain: MRATPLAAPAGSLSRKKRLELDDNLDTERPVQKRARSGPQPRLPPCLLPLSPPTAPDRATAVATASRLGPYVLLEPEEGGRAYQALHCPTGTEYTCKVYPVQEALAVLEPYARLPPHKHVARPTEVLAGTQLLYAFFTRTHGDMHSLVRSRHRIPEPEAAVLFRQMATALAHCHQHGLVLRDLKLCRFVFADRERKKLVLENLEDSCVLTGPDDSLWDKHACPAYVGPEILSSRASYSGKAADVWSLGVALFTMLAGHYPFQDSEPVLLFGKIRRGAYALPAGLSAPARCLVRCLLRREPAERLTATGILLHPWLRQDPMPLAPTRSHLWEAAQVVPDGLGLDEAREEEGDREVVLYG
# B4: ATP synthase mitochondrial F1 complex assembly factor 2 (Homo sapiens), Q8N5M1 (parent)
# chain: MWRSCLRLRDGGRRLLNRPAGGPSASMSPGPTIPSPARAYAPPTERKRFYQNVSITQGEGGFEINLDHRKLKTPQAKLFTVPSEALAIAVATEWDSQQDTIKYYTMHLTTLCNTSLDNPTQRNKDQLIRAAVKFLDTDTICYRVEEPETLVELQRNEWDPIIEWAEKRYGVEISSSTSIMGPSIPAKTREVLVSHLASYNTWALQGIEFVAAQLKSMVLTLGLIDLRLTVEQAVLLSRLEEEYQIQKWGNIEWAHDYELQELRARTAAGTLFIHLCSESTTVKHKLLKE
# partner: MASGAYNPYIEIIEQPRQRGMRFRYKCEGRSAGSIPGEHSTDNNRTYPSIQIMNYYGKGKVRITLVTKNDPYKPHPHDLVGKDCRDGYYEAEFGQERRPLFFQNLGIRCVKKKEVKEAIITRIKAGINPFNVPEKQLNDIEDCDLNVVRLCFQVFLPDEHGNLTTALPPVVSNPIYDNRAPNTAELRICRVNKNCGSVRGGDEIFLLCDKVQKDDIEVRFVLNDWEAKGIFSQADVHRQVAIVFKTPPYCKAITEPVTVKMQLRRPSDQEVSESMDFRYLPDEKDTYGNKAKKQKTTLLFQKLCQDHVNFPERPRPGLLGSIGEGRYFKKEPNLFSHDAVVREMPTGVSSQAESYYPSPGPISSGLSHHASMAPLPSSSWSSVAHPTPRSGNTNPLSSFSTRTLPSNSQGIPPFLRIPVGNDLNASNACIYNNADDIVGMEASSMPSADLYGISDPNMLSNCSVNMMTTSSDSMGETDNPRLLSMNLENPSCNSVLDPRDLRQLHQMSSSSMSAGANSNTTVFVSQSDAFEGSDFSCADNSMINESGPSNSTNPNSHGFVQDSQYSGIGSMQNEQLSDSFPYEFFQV
# B5: Acetylcholine receptor subunit gamma (Homo sapiens), P07510-2 (parent)
# chain: MHGGQGPLLLLLLLAVCLGAQGRNQEERLLADLMQNYDPNLRPAERDSDVVNVSLKLTLTNLISLNEREEALTTNVWIEMQWCDYRLRWDPRDYEGLWVLRVPSTMVWRPDIVLENKSQTYSTNEIDLQLSQEDGQTIEWIFIDPEAFTENGEWAIQHRPAKMLLDPAAPAQEAGHQKVVFYLLIQRKPLFYVINIIAPCVLISSVAILIHFLPAKAGGQKCTVAINVLLAQTVFLFLVAKKVPETSQAVPLISKYLTFLLVVTILIVVNAVVVLNVSLRSPHTHSMARGVRKVFLRLLPQLLRMHVRPLAPAAVQDTQSRLQNGSSGWSITTGEEVALCLPRSELLFQQWQRQGLVAAALEKLEKGPELGLSQFCGSLKQAAPAIQACVEACNLIACARHQQSHFDNGNEEWFLVGRVLDRVCFLAMLSLFICGTAGIFLMAHYNRVPALPFPGDPRPYLPSPD
# partner: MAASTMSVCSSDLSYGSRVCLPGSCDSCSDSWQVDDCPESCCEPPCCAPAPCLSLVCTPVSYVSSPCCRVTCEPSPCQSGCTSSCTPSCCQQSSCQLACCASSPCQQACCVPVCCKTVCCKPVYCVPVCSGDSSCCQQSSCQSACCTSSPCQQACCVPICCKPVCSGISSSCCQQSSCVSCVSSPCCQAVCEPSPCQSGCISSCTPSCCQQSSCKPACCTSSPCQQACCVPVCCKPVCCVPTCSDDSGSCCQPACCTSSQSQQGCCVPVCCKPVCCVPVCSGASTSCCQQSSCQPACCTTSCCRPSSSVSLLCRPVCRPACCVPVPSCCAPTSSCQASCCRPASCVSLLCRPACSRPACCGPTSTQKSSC
# B6: Alpha-sarcoglycan (Homo sapiens), Q16586 (parent)
# chain: MAETLFWTPLLVVLLAGLGDTEAQQTTLHPLVGRVFVHTLDHETFLSLPEHVAVPPAVHITYHAHLQGHPDLPRWLRYTQRSPHHPGFLYGSATPEDRGLQVIEVTAYNRDSFDTTRQRLVLEIGDPEGPLLPYQAEFLVRSHDAEEVLPSTPASRFLSALGGLWEPGELQLLNVTSALDRGGRVPLPIEGRKEGVYIKVGSASPFSTCLKMVASPDSHARCAQGQPPLLSCYDTLAPHFRVDWCNVTLVDKSVPEPADEVPTPGDGILEHDPFFCPPTEAPDRDFLVDALVTLLVPLLVALLLTLLLAYVMCCRREGRLKRDLATSDIQMVHHCTIHGNTEELRQMAASREVPRPLSTLPMFNVHTGERLPPRVDSAQVPLILDQH
# Variants of: B1
# Settings: with fam9b_human FAM9B
row,Variant,effect of a mutation on the interaction
1,I199F,disrupting interaction strength

# Variants of: B2
# Settings: with RAB3IP
row,Variant,effect of a mutation on the interaction
1,N223S,with no effect

# Variants of: B3
# Settings: with atf4_human ATF4, P18848
# atf4_human ATF4, P18848, sequence (P18848 whole entry): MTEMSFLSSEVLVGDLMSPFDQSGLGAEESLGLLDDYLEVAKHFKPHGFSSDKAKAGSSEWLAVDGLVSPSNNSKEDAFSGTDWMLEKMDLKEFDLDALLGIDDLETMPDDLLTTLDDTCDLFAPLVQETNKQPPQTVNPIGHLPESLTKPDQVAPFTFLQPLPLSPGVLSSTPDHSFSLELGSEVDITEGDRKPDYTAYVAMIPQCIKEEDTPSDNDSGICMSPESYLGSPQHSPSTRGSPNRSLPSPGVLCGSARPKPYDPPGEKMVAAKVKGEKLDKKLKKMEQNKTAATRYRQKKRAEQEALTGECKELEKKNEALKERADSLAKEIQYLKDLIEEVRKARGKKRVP
row,Variant,effect of a mutation on the interaction
1,Q84R,with no effect

# Variants of: B3
# Settings: with mdfi_human MDFI
row,Variant,effect of a mutation on the interaction
1,Q84R,with no effect

# Variants of: B4
# Settings: with REL
row,Variant,effect of a mutation on the interaction
1,W94R,disrupting interaction strength

# Variants of: B5
# Settings: with kr107_human KRTAP10-7, P60409
row,Variant,effect of a mutation on the interaction
1,R187C,disrupting interaction strength
2,R86C,disrupting interaction strength
3,V107G,disrupting interaction strength

# Variants of: B6
# Settings: with sgta_human SGTA
row,Variant,effect of a mutation on the interaction
1,T208I,with no effect
2,M312R,with no effect
